We go through five molecules from US20120190616A1 (IPSEN PHARMA S A S, published 2012).

Residue numbers refer to the chain shown, from its start.

For the assay, the target named is T1, native IGF-1 receptor of human MCF-7 cells (human, UniProt P08069 31-1367).
T1 construct: whole, on cells; assayed in membranes prepared from MCF-7 cells
Briefly: radioligand competition, [125I]IGF-1 on MCF-7 cell membranes. The protocol:
The homogenates were washed twice by centrifugation (39,000 g/10 minutes) and the final pellets were resuspended in 50 mM Tris-HCl containing 2.5 mM MgCl₂ and 0.1% BSA.
Unlabeled competing test peptides were sometimes included. The final assay volume was 0.25 ml. […] The supernatant was decanted and the radioactive particles trapped in the pellet was counted by gamma spectrometry (Wallac LKB, Gaithersburg, Md., USA).
(In general: In a radioligand displacement assay an active substance lowers the binding of a labelled ligand.)

B1: (Pro^27, Lys^28, Asn^59)hIGF-1(1-62)-OH (ligand)
chain: GPETLCGAELVDALQFVCGDRGFYFNPKTGYGSSSRRAPQTGIVDECCFRSCDLRRLENYCA
notes: synthetic; free acid C-terminus
The IC50 is the concentration needed to halve the response being measured. Higher therefore signals weaker potency in that assay. Regarding B1, the IC50 is 1.14 nM.

B2: (Asn^59, Thr^63, des-Leu^64, des-Lys^65, Glu^70)hIGF-1(1-70)-OH (ligand)
chain: GPETLCGAELVDALQFVCGDRGFYFNKPTGYGSSSRRAPQTGIVDECCFRSCDLRRLENYCATPAKSE
notes: synthetic; Leu64 and Lys65 deleted; free acid C-terminus; disulfides 6-48, 47-52, 18-61
The molecule B2 came in with an IC50 of 19 nM.

B3: (Arg^27,65,68, Leu^59)hIGF-1(1-70)-OH (ligand)
chain: GPETLCGAELVDALQFVCGDRGFYFNRPTGYGSSSRRAPQTGIVDECCFRSCDLRRLELYCAPLRPARSA
notes: synthetic; free acid C-terminus; disulfides 6-48, 47-52, 18-61
Molecule B3 had an IC50 of 2.69 nM.

B4: (Leu^59, Arg^65,68)hIGF-1(1-70)-OH (ligand)
chain: B3 chain with R27K
notes: as for B3
For B4, the IC50 turned out to be 2.89 nM. The IC50 values of the last two molecules are within 1.5-fold of each other.

B5: (Pro^27, Lys^28, Asn^59)hIGF-1(1-70)-OH (ligand)
chain: B3 chain with R27P, P28K, L59N, R65K, R68K
notes: as for B3
Molecule B5 came in with an IC50 of 0.88 nM.
